1 molecule from patent US20230322884A1, “IMMUNOSUPPRESSANT IN COMBINATION WITH HIGH AFFINITY IL-2 RECEPTOR AGONISTS AND RELATED DOSING” (Selecta Biosciences, Inc., priority 2022, published 2023) can be followed below.

This assay concerns Ovalbumin-specific OTII T cells. The assay can be described thus: Adoptive transfer of ovalbumin-specific OTII T cells, Foxp3 expression and total Treg (Example 5). Type of assay: in vivo, mice. The following applies: OTII T cells adoptively transferred prior to treatment. Here is the method:
However, expansion of antigen-specific Treg can be more desirable than expansion of total Treg. The ability of ImmTOR plus antigen combined with IL-2 mutein to induce and/or expand antigen-specific Treg was evaluated. Ovalbumin-specific OTII T cells were adoptively transferred into mice prior to treatment with ovalbumin and ImmTOR and/or IL-2 mutein.

B1: ovalbumin (protein, UniProt P01012 2-386, looked up)
Ovalbumin: GSIGAASMEFCFDVFKELKVHHANENIFYCPIAIMSALAMVYLGAKDSTRTQINKVVRFDKLPGFGDSIEAQCGTSVNVHSSLRDILNQITKPNDVYSFSLASRLYAEERYPILPEYLQCVKELYRGGLEPINFQTAADQARELINSWVESQTNGIIRNVLQPSSVDSQTAMVLVNAIVFKGLWEKAFKDEDTQAMPFRVTEQESKPVQMMYQIGLFRVASMASEKMKILELPFASGTMSMLVLLPDEVSGLEQLESIINFEKLTEWTSSNVMEERKIKVYLPRMKMEEKYNLTSVLMAMGITDVFSSSANLSGISSAESLKISQAVHAAHAEINEAGREVVGSAEAGVDAASVSEEFRADHPFLFCIKHIATNAVLFFGRCVSP
notes: model antigen administered to mice
Regarding B1, the “percentage of Foxp3+ OTII cells” value is on record as approximately 6%.
